The values that follow come from the supplement of paper PMC5998384.

For data set [1], the system named is HeLa Kyoto. Kind of data set: solubility in G1/S (NP-40 vs SDS abundance) (log2 ratio); higher = more soluble. Particulars: cell cycle stage: G1/S.
In data set [2] the test system is HeLa Kyoto. Kind of data set: solubility change mitosis vs G1/S (difference of NP-40 vs SDS log2 ratios) (log2 ratio difference); higher = more soluble in mitosis.
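Throughout, for solubility change mitosis vs G1/S (difference of NP-40 vs SDS log2 ratios): synchronized HeLa Kyoto cells (double thymidine block for G1/S, nocodazole release for mitosis), protein amounts in NP-40 versus SDS lysates quantified by mass spectrometry, three biological replicates.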
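Throughout, for solubility in G1/S (NP-40 vs SDS abundance): HeLa Kyoto cells arrested at G1/S by double thymidine block, proteins quantified by TMT10plex mass spectrometry in mild NP-40 versus SDS extracts, three biological replicates.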

Consider “MHQTLCLNPESLKMSACSDFVEHIWKPGSCKNCFCLRSDHQLVAGPPQPRAGSLPPPPRLPPRPENCRLEDEGVNSSPYSKPTIAVKPTMMSSEASDVWTEANLSAEVSQVIWRRAPGKLPLPKQEDAPVVYLGSFRGVQKPAGPSTSPDGNSRCPPAYTMVGLHNLEPRGERNIAFHPVSFPEEKAVHKEKPSFPYQDRPSTQESFRQKLAAFAGTTSGCHQGPGPLRESLPSEDDSDQRCSPSGDSEGGEYCSILDCCPGSPVAKAASQTAGSRGRHGGRDCSPTCWEQGKCSGPAEQEKRGPSFPKECCSQGPTAHPSCLGPKKLSLTSEAAISSDGLSCGSGSGSGSGASSPFVPHLESDYCSLMKEPAPEKQQDPGCPGVTPSRCLGLTGEPQPPAHPREATQPEPIYAESTKRKKAAPVPSKSQAKIEHAAAAQGQGQVCTGNAWAQKAASGWGRDSPDPTPQVSATITVMAAHPEEDHRTIYLSSPDSAVGVQWPRGPVSQNSEVGEEETSAGQGLSSRESHAHSASESKPKERPAIPPKLSKSSPVGSPVSPSAGGPPVSPLADLSDGSSGGSSIGPQPPSQGPADPAPSCRTNGVAISDPSRCPQPAASSASEQRRPRFQAGTWSRQCRIEEEEEVEQELLSHSWGRETKNGPTDHSNSTTWHRLHPTDGSSGQNSKVGTGMSKSASFAFEFPKDRSGIETFSPPPPPPKSRHLLKMNKSSSDLEKVSQGSAESLSPSFRGVHVSFTTGSTDSLASDSRTCSDGGPSSELAHSPTNSGKKLFAPVPFPSGSTEDVSPSGPQQPPPLPQKKIVSRAASSPDGFFWTQGSPKPGTASPKLNLSHSETNVHDESHFSYSLSPGNRHHPVFSSSDPLEKAFKGSGHWLPAAGLAGNRGGCGSPGLQCKGAPSASSSQLSVSSQASTGSTQLQLHGLLSNISSKEGTYAKLGGLYTQSLARLVAKCEDLFMGGQKKELHFNENNWSLFKLTCNKPCCDSGDAIYYCATCSEDPGSTYAVKICKAPEPKTVSYCSPSVPVHFNIQQDCGHFVASVPSSMLSSPDAPKDPVPALPTHPPAQEQDCVVVITREVPHQTASDFVRDSAASHQAEPEAYERRVCFLLLQLCNGLEHLKEHGIIHRDLCLENLLLVHCTLQAGPGPAPAPAPAPAPAAAAPPCSSAAPPAGGTLSPAAGPASPEGPREKQLPRLIISNFLKAKQKPGGTPNLQQKKSQARLAPEIVSASQYRKFDEFQTGILIYELLHQPNPFEVRAQLRERDYRQEDLPPLPALSLYSPGLQQLAHLLLEADPIKRIRIGEAKRVLQCLLWGPRRELVQQPGTSEEALCGTLHNWIDMKRALMMMKFAEKAVDRRRGVELEDWLCCQYLASAEPGALLQSLKLLQLL [SGK223]”, for which, in the data set on HeLa Kyoto [1], the “solubility in G1/S (log2)” value was -0.249. For the same sequence, the “solubility change mitosis (log2)” value with HeLa Kyoto [2] is -0.132.

On to “MILTKAQYDEIAQCLVSVPPTRQSLRKLKQRFPSQSQATLLSIFSQEYQKHIKRTHAKHHTSEAIESYYQRYLNGVVKNGAAPVLLDLANEVDYAPSLMARLILERFLQEHEETPPSKSIINSMLRDPSQIPDGVLANQVYQCIVNDCCYGPLVDCIKHAIGHEHEVLLRDLLLEKNLSFLDEDQLRAKGYDKTPDFILQVPVAVEGHIIHWIESKASFGDECSHHAYLHDQFWSYWNRFGPGLVIYWYGFIQELDCNRERGILLKACFPTNIVTLCHSIA [C15ORF41]”, for which the “solubility in G1/S (log2)” value in the data set with HeLa Kyoto [1] came out at 0.176. In addition, the “solubility change mitosis (log2)” value with HeLa Kyoto [2] was determined as 0.0246.

On to “MIPLEKPGSGGSSPGATSGSGRAGRGLSGPCRPPPPPQARGLLTEIRAVVRTEPFQDGYSLCPGRELGRGKFAVVRKCIKKDSGKEFAAKFMRKRRKGQDCRMEIIHEIAVLELAQDNPWVINLHEVYETASEMILVLEYAAGGEIFDQCVADREEAFKEKDVQRLMRQILEGVHFLHTRDVVHLDLKPQNILLTSESPLGDIKIVDFGLSRILKNSEELREIMGTPEYVAPEILSYDPISMATDMWSIGVLTYVMLTGISPFLGNDKQETFLNISQMNLSYSEEEFDVLSESAVDFIRTLLVKKPEDRATAEECLKHPWLTQSSIQEPSFRMEKALEEANALQEGHSVPEINSDTDKSETKESIVTEELIVVTSYTLGQCRQSEKEKMEQKAISKRFKFEEPLLQEIPGEFIY [STK17A]”, for which the “solubility in G1/S (log2)” value in the data set on HeLa Kyoto [1] stood at 0.0848. For the same sequence, the “solubility change mitosis (log2)” value with HeLa Kyoto [2] was -0.0546.

Regarding “MKKSYSGGTRTSSGRLRRLGDSSGPALKRSFEVEEVETPNSTPPRRVQTPLLRATVASSTQKFQDLGVKNSEPSARHVDSLSQRSPKASLRRVELSGPKAAEPVSRRTELSIDISSKQVENAGAIGPSRFGLKRAEVLGHKTPEPAPRRTEITIVKPQESAHRRMEPPASKVPEVPTAPATDAAPKRVEIQMPKPAEAPTAPSPAQTLENSEPAPVSQLQSRLEPKPQPPVAEATPRSQEATEAAPSCVGDMADTPRDAGLKQAPASRNEKAPVDFGYVGIDSILEQMRRKAMKQGFEFNIMVVGQSGLGKSTLINTLFKSKISRKSVQPTSEERIPKTIEIKSITHDIEEKGVRMKLTVIDTPGFGDHINNENCWQPIMKFINDQYEKYLQEEVNINRKKRIPDTRVHCCLYFIPATGHSLRPLDIEFMKRLSKVVNIVPVIAKADTLTLEERVHFKQRITADLLSNGIDVYPQKEFDEDSEDRLVNEKFREMIPFAVVGSDHEYQVNGKRILGRKTKWGTIEVENTTHCEFAYLRDLLIRTHMQNIKDITSSIHFEAYRVKRLNEGSSAMANGMEEKEPEAPEM [SEPT9]”, the “solubility in G1/S (log2)” value in the data set with HeLa Kyoto [1] was 0.198. Besides, the “solubility change mitosis (log2)” value in the data set on HeLa Kyoto [2] is -0.0335.

“MKLLRRAWRRRAALGLGTLALCGAALLYLARCAAEPGDPRAMSGRSPPPPAPARAAAFLAVLVASAPRAAERRSVIRSTWLARRGAPGDVWARFAVGTAGLGAEERRALEREQARHGDLLLLPALRDAYENLTAKVLAMLAWLDEHVAFEFVLKADDDSFARLDALLAELRAREPARRRRLYWGFFSGRGRVKPGGRWREAAWQLCDYYLPYALGGGYVLSADLVHYLRLSRDYLRAWHSEDVSLGAWLAPVDVQREHDPRFDTEYRSRGCSNQYLVTHKQSLEDMLEKHATLAREGRLCKREVQLRLSYVYDWSAPPSQCCQRREGIP [B3GALT6]”: the “solubility in G1/S (log2)” value with HeLa Kyoto [1] was -0.748. The “solubility change mitosis (log2)” value in the data set with HeLa Kyoto [2] is 0.135.

In the case of “MKMEEAVGKVEELIESEAPPKASEQETAKEEDGSVELESQVQKDGVADSTVISSMPCLLMELRRDSSESQLASTESDKPTTGRVYESDSSNHCMLSPSSSGHLADSDTLSSAEENEPSQAETAVEGDPSGVSGATVGRKSRRSRSESETSTMAAKKNRQSSDKQNGRVAKVKGHRSQKHKERIRLLRQKREAAARKKYNLLQDSSTSDSDLTCDSSTSSSDDDEEVSGSSKTITAEIPDGPPVVAHYDMSDTNSDPEVVNVDNLLAAAVVQEHSNSVGGQDTGATWRTSGLLEELNAEAGHLDPGFLASDKTSAGNAPLNEEINIASSDSEVEIVGVQEHARCVHPRGGVIQSVSSWKHGSGTQYVSTRQTQSWTAVTPQQTWASPAEVVDLTLDEDSRRKYLL [C18ORF25]”, the “solubility in G1/S (log2)” value in the data set on HeLa Kyoto [1] is -0.0209. Besides, the “solubility change mitosis (log2)” value with HeLa Kyoto [2] is -0.243.

Take “MKRQSERDSSPSGRGSSSSAKRPREREREAEAGGRRAAHKASGGAKHPVPARARDKPRGSGSGGGGHRDGRGTGDANHRASSGRSSGSGAGGGGRGGKASGDPGASGMSPRASPLPPPPPPPGAEPACPGSSAAAPEYKTLLISSLSPALPAEHLEDRLFHQFKRFGEISLRLSHTPELGRVAYVNFRHPQDAREARQHALARQLLLYDRPLKVEPVYLRGGGGSSRRSSSSSAAASTPPPGPPAPADPLGYLPLHGGYQYKQRSLSPVAAPPLREPRARHAAAAFALDAAAAAAVGLSRERALDYYGLYDDRGRPYGYPAVCEEDLMPEDDQRATRNLFIGNLDHSVSEVELRRAFEKYGIIEEVVIKRPARGQGGAYAFLKFQNLDMAHRAKVAMSGRVIGRNPIKIGYGKANPTTRLWVGGLGPNTSLAALAREFDRFGSIRTIDHVKGDSFAYIQYESLDAAQAACAKMRGFPLGGPDRRLRVDFAKAEETRYPQQYQPSPLPVHYELLTDGYTRHRNLDADLVRDRTPPHLLYSDRDRTFLEGDWTSPSKSSDRRNSLEGYSRSVRSRSGERWGADGDRGLPKPWEERRKRRSLSSDRGRTTHSPYEERSRTKGSGQQSERGSDRTPERSRKENHSSEGTKESSSNSLSNSRHGAEERGHHHHHHEAADSSHGKKARDSERNHRTTEAEPKPLEEPKHETKKLKNLSEYAQTLQLGWNGLLVLKNSCFPTSMHILEGDQGVISSLLKDHTSGSKLTQLKIAQRLRLDQPKLDEVTRRIKQGSPNGYAVLLATQATPSGLGTEGMPTVEPGLQRRLLRNLVSYLKQKQAAGVISLPVGGSKGRDGTGMLYAFPPCDFSQQYLQSALRTLGKLEEEHMVIVIVRDTA [RBM15B]”: the “solubility in G1/S (log2)” value in the data set on HeLa Kyoto [1] is -0.311. For the same sequence, the “solubility change mitosis (log2)” value in the data set with HeLa Kyoto [2] turned out to be 0.504.
